This is an account of results in the supplement of paper PMC10567573.

The labels stand for the following.
B1: PDZK1 (parent)
chain: RETASLKLLPHQPRIVEMKKGSNG
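Also: lentivirally expressed fusions sorted by FACS into six bins by GFP to DsRed ratio, PSI derived from sequencing read proportions per bin multiplied by bin number.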

This data set covers variants of B1. The data set is described as follows: protein stability index of a GFP-peptide fusion (GPS, HEK-293T) (PSI 1-6); higher = more stable. The settings on record: c terminus: a fixed tail appended.
With RETASLYLLPHQPRIVEMKKGSNG [K7Y], the protein stability index was 3.4. RETASLALLPHQPRIVEMKKGSNG [K7A]: the protein stability index was found to be 4.19. The value for RETASLDLLPHQPRIVEMKKGSNG [K7D] was 4.97; that for RETASLRLLPHQPRIVEMKKGSNG [K7R] was 4.05. Next, RETASLGLLPHQPRIVEMKKGSNG [K7G]: 4.32; RETASLFLLPHQPRIVEMKKGSNG [K7F]: 3.07; RETASLNLLPHQPRIVEMKKGSNG [K7N]: 4.86. For RETASLWLLPHQPRIVEMKKGSNG [K7W], the protein stability index is 2.72.

On to RETASLCLLPHQPRIVEMKKGSNG [K7C], for which the protein stability index turned out to be 3.89.

Take RETASLSLLPHQPRIVEMKKGSNG [K7S]: the protein stability index came out at 4.29.

For RETASLQLLPHQPRIVEMKKGSNG [K7Q], the protein stability index was determined as 4.74. Take RETASLLLLPHQPRIVEMKKGSNG [K7L]: the protein stability index came to 3.98.

On to RETASLILLPHQPRIVEMKKGSNG [K7I], for which the protein stability index worked out at 3.68.

RETASLVLLPHQPRIVEMKKGSNG [K7V]: the protein stability index amounted to 3.95. As for RETASLPLLPHQPRIVEMKKGSNG [K7P], the protein stability index turned out to be 4.67. Regarding RETASLMLLPHQPRIVEMKKGSNG [K7M], the protein stability index was 3.9. With RETASLTLLPHQPRIVEMKKGSNG [K7T], the protein stability index was determined as 4.66. Next, RETASRKLLPHQPRIVEMKKGSNG [L6R]: 3.37; RETASPKLLPHQPRIVEMKKGSNG [L6P]: 4.18; RETASTKLLPHQPRIVEMKKGSNG [L6T]: 3.63. The value for RETASGKLLPHQPRIVEMKKGSNG [L6G] was 3.69; that for RETASKKLLPHQPRIVEMKKGSNG [L6K] was 3.64. The value for RETASSKLLPHQPRIVEMKKGSNG [L6S] was 4.01.

For the variant RETASQKLLPHQPRIVEMKKGSNG [L6Q], the protein stability index came to 3.9. In the case of RETASAKLLPHQPRIVEMKKGSNG [L6A], the protein stability index is 3.66. For the variant RETASYKLLPHQPRIVEMKKGSNG [L6Y], the protein stability index is 3.56.

Consider RETASMKLLPHQPRIVEMKKGSNG [L6M], for which the protein stability index is 3.55. RETASEKLLPHQPRIVEMKKGSNG [L6E]: the protein stability index came out at 3.95. For the variant RETASWKLLPHQPRIVEMKKGSNG [L6W], the protein stability index is 2.98.

On to RETASNKLLPHQPRIVEMKKGSNG [L6N], for which the protein stability index is 4.

Turning to RETASHKLLPHQPRIVEMKKGSNG [L6H], the protein stability index came to 3.56. As for RETASIKLLPHQPRIVEMKKGSNG [L6I], the protein stability index was 3.48.

As for RETASDKLLPHQPRIVEMKKGSNG [L6D], the protein stability index is 3.53. For the variant RETASVKLLPHQPRIVEMKKGSNG [L6V], the protein stability index came out at 3.54. Regarding RETASFKLLPHQPRIVEMKKGSNG [L6F], the protein stability index turned out to be 3.15. The value for REWASLKLLPHQPRIVEMKKGSNG [T3W] was 2.58; that for REYASLKLLPHQPRIVEMKKGSNG [T3Y] was 3.02; that for REQASLKLLPHQPRIVEMKKGSNG [T3Q] was 3.41. As to RECASLKLLPHQPRIVEMKKGSNG [T3C], the protein stability index stood at 2.35. Take RERASLKLLPHQPRIVEMKKGSNG [T3R]: the protein stability index was 3.28.

Consider REIASLKLLPHQPRIVEMKKGSNG [T3I], for which the protein stability index stood at 3.6.

On to REMASLKLLPHQPRIVEMKKGSNG [T3M], for which the protein stability index was determined as 3.14.

Regarding REHASLKLLPHQPRIVEMKKGSNG [T3H], the protein stability index came to 3.31.

On to REKASLKLLPHQPRIVEMKKGSNG [T3K], for which the protein stability index worked out at 3.53. Take REDASLKLLPHQPRIVEMKKGSNG [T3D]: the protein stability index was 3.39. Next, REPASLKLLPHQPRIVEMKKGSNG [T3P]: 3.75.

For the variant REVASLKLLPHQPRIVEMKKGSNG [T3V], the protein stability index amounted to 3.25. With RESASLKLLPHQPRIVEMKKGSNG [T3S], the protein stability index stood at 3.62. The value for REAASLKLLPHQPRIVEMKKGSNG [T3A] was 3.26. As for REGASLKLLPHQPRIVEMKKGSNG [T3G], the protein stability index stood at 3.27.

In the case of REFASLKLLPHQPRIVEMKKGSNG [T3F], the protein stability index turned out to be 3.08.

On to REEASLKLLPHQPRIVEMKKGSNG [T3E], for which the protein stability index was determined as 3.65. Next, RCTASLKLLPHQPRIVEMKKGSNG [E2C]: 2.1; RATASLKLLPHQPRIVEMKKGSNG [E2A]: 2.73.

RRTASLKLLPHQPRIVEMKKGSNG [E2R]: the protein stability index stood at 3.63. Take RTTASLKLLPHQPRIVEMKKGSNG [E2T]: the protein stability index turned out to be 3.39. On to RWTASLKLLPHQPRIVEMKKGSNG [E2W], for which the protein stability index stood at 2.36. Turning to RKTASLKLLPHQPRIVEMKKGSNG [E2K], the protein stability index was determined as 3.58. For the variant RITASLKLLPHQPRIVEMKKGSNG [E2I], the protein stability index is 2.23. On to RYTASLKLLPHQPRIVEMKKGSNG [E2Y], for which the protein stability index was 2.64.

For RSTASLKLLPHQPRIVEMKKGSNG [E2S], the protein stability index was 3.62. With RQTASLKLLPHQPRIVEMKKGSNG [E2Q], the protein stability index is 3.73.

As for RDTASLKLLPHQPRIVEMKKGSNG [E2D], the protein stability index is 3.4.

As to RFTASLKLLPHQPRIVEMKKGSNG [E2F], the protein stability index amounted to 3.45. On to RPTASLKLLPHQPRIVEMKKGSNG [E2P], for which the protein stability index was 3.65. Regarding RNTASLKLLPHQPRIVEMKKGSNG [E2N], the protein stability index worked out at 3.57.

For RVTASLKLLPHQPRIVEMKKGSNG [E2V], the protein stability index turned out to be 2.62. Next, RMTASLKLLPHQPRIVEMKKGSNG [E2M]: 3.08; RETASLKDLPHQPRIVEMKKGSNG [L8D]: 3.4. Regarding RETASLKMLPHQPRIVEMKKGSNG [L8M], the protein stability index came to 2.75. As for RETASLKALPHQPRIVEMKKGSNG [L8A], the protein stability index turned out to be 3.56. Regarding RETASLKRLPHQPRIVEMKKGSNG [L8R], the protein stability index is 3.89. Next, RETASLKELPHQPRIVEMKKGSNG [L8E]: 3.77. The value for RETASLKSLPHQPRIVEMKKGSNG [L8S] was 3.7; that for RETASLKCLPHQPRIVEMKKGSNG [L8C] was 3.38. RETASLKILPHQPRIVEMKKGSNG [L8I]: the protein stability index amounted to 3.34.

Regarding RETASLKVLPHQPRIVEMKKGSNG [L8V], the protein stability index amounted to 3.92. As for RETASLKHLPHQPRIVEMKKGSNG [L8H], the protein stability index came to 2.81. As for RETASLKWLPHQPRIVEMKKGSNG [L8W], the protein stability index came out at 3.21. Next, RETASLKPLPHQPRIVEMKKGSNG [L8P]: 4.25. On to RETASLKYLPHQPRIVEMKKGSNG [L8Y], for which the protein stability index was found to be 3.17. Consider RETASLKKLPHQPRIVEMKKGSNG [L8K], for which the protein stability index amounted to 3.63. The value for RETASLKFLPHQPRIVEMKKGSNG [L8F] was 3.65. As for RETASLKQLPHQPRIVEMKKGSNG [L8Q], the protein stability index amounted to 4.16. The value for RETASLKNLPHQPRIVEMKKGSNG [L8N] was 2.96; that for RETASLKGLPHQPRIVEMKKGSNG [L8G] was 3.42. WETASLKLLPHQPRIVEMKKGSNG [R1W]: the protein stability index was 2.09. In the case of PETASLKLLPHQPRIVEMKKGSNG [R1P], the protein stability index was found to be 3.24.

On to NETASLKLLPHQPRIVEMKKGSNG [R1N], for which the protein stability index was 3.8. As to GETASLKLLPHQPRIVEMKKGSNG [R1G], the protein stability index was found to be 2.8. Consider VETASLKLLPHQPRIVEMKKGSNG [R1V], for which the protein stability index is 3.14. With METASLKLLPHQPRIVEMKKGSNG [R1M], the protein stability index is 2.38.

With YETASLKLLPHQPRIVEMKKGSNG [R1Y], the protein stability index is 3.14. As for LETASLKLLPHQPRIVEMKKGSNG [R1L], the protein stability index came to 3.65.
